The target in the assay is human GLP-1 receptor (human, UniProt P43220). Nature of the assay: cell-based or functional assay.

Where no end group is shown, it is not given here. [ ]: non-standard residue; d: D form. Aib = CC(C)(N)C(=O)O

B1: [Aib8,Glu23,Val25,Glu34,Lys35,Val36,Lys37]-GLP-1-(7-37)-peptidyl-Glu-Phe-Phe amide (peptide)
peptide: H[Aib]EGTFTSDVSSYLEGEAVKEFIAWLVEKVKEFF-NH2
modifications: N-terminus assumed
SMILES: CC[C@H](C)[C@H](NC(=O)[C@H](Cc1ccccc1)NC(=O)[C@H](CCC(=O)O)NC(=O)[C@H](CCCCN)NC(=O)[C@@H](NC(=O)[C@H](C)NC(=O)[C@H](CCC(=O)O)NC(=O)CNC(=O)[C@H](CCC(=O)O)NC(=O)[C@H](CC(C)C)NC(=O)[C@H](Cc1ccc(O)cc1)NC(=O)[C@H](CO)NC(=O)[C@H](CO)NC(=O)[C@@H](NC(=O)[C@H](CC(=O)O)NC(=O)[C@H](CO)NC(=O)[C@@H](NC(=O)[C@H](Cc1ccccc1)NC(=O)[C@@H](NC(=O)CNC(=O)[C@H](CCC(=O)O)NC(=O)C(C)(C)NC(=O)[C@@H](N)Cc1c[nH]cn1)[C@@H](C)O)[C@@H](C)O)C(C)C)C(C)C)C(=O)N[C@@H](C)C(=O)N[C@@H](Cc1c[nH]c2ccccc12)C(=O)N[C@@H](CC(C)C)C(=O)N[C@H](C(=O)N[C@@H](CCC(=O)O)C(=O)N[C@@H](CCCCN)C(=O)N[C@H](C(=O)N[C@@H](CCCCN)C(=O)N[C@@H](CCC(=O)O)C(=O)N[C@@H](Cc1ccccc1)C(=O)N[C@@H](Cc1ccccc1)C(N)=O)C(C)C)C(C)C
For the molecule B1, the “CRE luciferase EC50, 0% HSA” value was 0.525 nM and the “CRE luciferase EC50, 1% HSA” value is 0.372 nM.

B2: [Aib8,Glu23,Val25,Glu34,Lys35,Val36,Lys37]-GLP-1-(7-37)-peptidyl-Glu-Lys-Leu amide (peptide)
peptide: H[Aib]EGTFTSDVSSYLEGEAVKEFIAWLVEKVKEKL-NH2
modifications: N-terminus assumed
SMILES: CC[C@H](C)[C@H](NC(=O)[C@H](Cc1ccccc1)NC(=O)[C@H](CCC(=O)O)NC(=O)[C@H](CCCCN)NC(=O)[C@@H](NC(=O)[C@H](C)NC(=O)[C@H](CCC(=O)O)NC(=O)CNC(=O)[C@H](CCC(=O)O)NC(=O)[C@H](CC(C)C)NC(=O)[C@H](Cc1ccc(O)cc1)NC(=O)[C@H](CO)NC(=O)[C@H](CO)NC(=O)[C@@H](NC(=O)[C@H](CC(=O)O)NC(=O)[C@H](CO)NC(=O)[C@@H](NC(=O)[C@H](Cc1ccccc1)NC(=O)[C@@H](NC(=O)CNC(=O)[C@H](CCC(=O)O)NC(=O)C(C)(C)NC(=O)[C@@H](N)Cc1c[nH]cn1)[C@@H](C)O)[C@@H](C)O)C(C)C)C(C)C)C(=O)N[C@@H](C)C(=O)N[C@@H](Cc1c[nH]c2ccccc12)C(=O)N[C@@H](CC(C)C)C(=O)N[C@H](C(=O)N[C@@H](CCC(=O)O)C(=O)N[C@@H](CCCCN)C(=O)N[C@H](C(=O)N[C@@H](CCCCN)C(=O)N[C@@H](CCC(=O)O)C(=O)N[C@@H](CCCCN)C(=O)N[C@@H](CC(C)C)C(N)=O)C(C)C)C(C)C
Consider B2, for which the “CRE luciferase EC50, 0% HSA” value was found to be 0.059 nM and the “CRE luciferase EC50, 1% HSA” value stood at 0.029 nM.

B3: [Aib8,Glu23,Val25,Glu34,Lys35,Val36,Lys37]-GLP-1-(7-37)-peptidyl-Glu-Gly-Leu amide (peptide)
peptide: H[Aib]EGTFTSDVSSYLEGEAVKEFIAWLVEKVKEGL-NH2
modifications: N-terminus assumed
SMILES: CC[C@H](C)[C@H](NC(=O)[C@H](Cc1ccccc1)NC(=O)[C@H](CCC(=O)O)NC(=O)[C@H](CCCCN)NC(=O)[C@@H](NC(=O)[C@H](C)NC(=O)[C@H](CCC(=O)O)NC(=O)CNC(=O)[C@H](CCC(=O)O)NC(=O)[C@H](CC(C)C)NC(=O)[C@H](Cc1ccc(O)cc1)NC(=O)[C@H](CO)NC(=O)[C@H](CO)NC(=O)[C@@H](NC(=O)[C@H](CC(=O)O)NC(=O)[C@H](CO)NC(=O)[C@@H](NC(=O)[C@H](Cc1ccccc1)NC(=O)[C@@H](NC(=O)CNC(=O)[C@H](CCC(=O)O)NC(=O)C(C)(C)NC(=O)[C@@H](N)Cc1c[nH]cn1)[C@@H](C)O)[C@@H](C)O)C(C)C)C(C)C)C(=O)N[C@@H](C)C(=O)N[C@@H](Cc1c[nH]c2ccccc12)C(=O)N[C@@H](CC(C)C)C(=O)N[C@H](C(=O)N[C@@H](CCC(=O)O)C(=O)N[C@@H](CCCCN)C(=O)N[C@H](C(=O)N[C@@H](CCCCN)C(=O)N[C@@H](CCC(=O)O)C(=O)NCC(=O)N[C@@H](CC(C)C)C(N)=O)C(C)C)C(C)C
Consider B3, for which the “CRE luciferase EC50, 0% HSA” value was 0.011 nM and the “CRE luciferase EC50, 1% HSA” value is 0.003 nM.

B4: [Glu34,Lys35,Val36,Lys37]-GLP-1-(7-37)-peptidyl-Glu-Phe amide (peptide)
peptide: HAEGTFTSDVSSYLEGQAAKEFIAWLVEKVKEF-NH2
As for B4, the “CRE luciferase EC50, 0% HSA” value was 0.016 nM and the “CRE luciferase EC50, 1% HSA” value amounted to 0.005 nM.

B5: [Aib8,Glu23,Val25,Glu34,Lys35,Val36,Lys37]-GLP-1-(7-37)-peptidyl-Glu-Leu-Leu amide (peptide)
peptide: H[Aib]EGTFTSDVSSYLEGEAVKEFIAWLVEKVKELL-NH2
modifications: N-terminus assumed
SMILES: CC[C@H](C)[C@H](NC(=O)[C@H](Cc1ccccc1)NC(=O)[C@H](CCC(=O)O)NC(=O)[C@H](CCCCN)NC(=O)[C@@H](NC(=O)[C@H](C)NC(=O)[C@H](CCC(=O)O)NC(=O)CNC(=O)[C@H](CCC(=O)O)NC(=O)[C@H](CC(C)C)NC(=O)[C@H](Cc1ccc(O)cc1)NC(=O)[C@H](CO)NC(=O)[C@H](CO)NC(=O)[C@@H](NC(=O)[C@H](CC(=O)O)NC(=O)[C@H](CO)NC(=O)[C@@H](NC(=O)[C@H](Cc1ccccc1)NC(=O)[C@@H](NC(=O)CNC(=O)[C@H](CCC(=O)O)NC(=O)C(C)(C)NC(=O)[C@@H](N)Cc1c[nH]cn1)[C@@H](C)O)[C@@H](C)O)C(C)C)C(C)C)C(=O)N[C@@H](C)C(=O)N[C@@H](Cc1c[nH]c2ccccc12)C(=O)N[C@@H](CC(C)C)C(=O)N[C@H](C(=O)N[C@@H](CCC(=O)O)C(=O)N[C@@H](CCCCN)C(=O)N[C@H](C(=O)N[C@@H](CCCCN)C(=O)N[C@@H](CCC(=O)O)C(=O)N[C@@H](CC(C)C)C(=O)N[C@@H](CC(C)C)C(N)=O)C(C)C)C(C)C
In the case of B5, the “CRE luciferase EC50, 0% HSA” value amounted to 0.489 nM and the “CRE luciferase EC50, 1% HSA” value is 0.303 nM.

B6: [Aib8,Glu23,Val25,Glu34,Lys35,Val36,Lys37]-GLP-1-(7-37)-peptidyl-Glu-Val-Leu amide (peptide)
peptide: H[Aib]EGTFTSDVSSYLEGEAVKEFIAWLVEKVKEVL-NH2
modifications: N-terminus assumed
SMILES: CC[C@H](C)[C@H](NC(=O)[C@H](Cc1ccccc1)NC(=O)[C@H](CCC(=O)O)NC(=O)[C@H](CCCCN)NC(=O)[C@@H](NC(=O)[C@H](C)NC(=O)[C@H](CCC(=O)O)NC(=O)CNC(=O)[C@H](CCC(=O)O)NC(=O)[C@H](CC(C)C)NC(=O)[C@H](Cc1ccc(O)cc1)NC(=O)[C@H](CO)NC(=O)[C@H](CO)NC(=O)[C@@H](NC(=O)[C@H](CC(=O)O)NC(=O)[C@H](CO)NC(=O)[C@@H](NC(=O)[C@H](Cc1ccccc1)NC(=O)[C@@H](NC(=O)CNC(=O)[C@H](CCC(=O)O)NC(=O)C(C)(C)NC(=O)[C@@H](N)Cc1c[nH]cn1)[C@@H](C)O)[C@@H](C)O)C(C)C)C(C)C)C(=O)N[C@@H](C)C(=O)N[C@@H](Cc1c[nH]c2ccccc12)C(=O)N[C@@H](CC(C)C)C(=O)N[C@H](C(=O)N[C@@H](CCC(=O)O)C(=O)N[C@@H](CCCCN)C(=O)N[C@H](C(=O)N[C@@H](CCCCN)C(=O)N[C@@H](CCC(=O)O)C(=O)N[C@H](C(=O)N[C@@H](CC(C)C)C(N)=O)C(C)C)C(C)C)C(C)C
For B6, the “CRE luciferase EC50, 0% HSA” value was 0.198 nM and the “CRE luciferase EC50, 1% HSA” value amounted to 0.065 nM.

B7: [Glu23,Val25,Glu34,Lys35,Val36,Lys37]-GLP-1-(7-37)-peptidyl-Glu-Phe-Leu-Glu-Lys (peptide)
peptide: HAEGTFTSDVSSYLEGEAVKEFIAWLVEKVKEFLEK
As for B7, the “CRE luciferase EC50, 0% HSA” value worked out at 0.098 nM and the “CRE luciferase EC50, 1% HSA” value came out at 0.031 nM.

B8: [Glu34,Lys35,Val36,Lys37]-GLP-1-(7-37)-peptidyl-Glu-Phe-Leu-Glu-Lys (peptide)
peptide: HAEGTFTSDVSSYLEGQAAKEFIAWLVEKVKEFLEK
Regarding B8, the “CRE luciferase EC50, 0% HSA” value turned out to be 0.03 nM and the “CRE luciferase EC50, 1% HSA” value came to 0.011 nM.

B9: [Aib8,Glu23,Val25,Lys35,Aib36,Lys37]-GLP-1-(7-37)-peptidyl-Glu-Phe-Leu amide (peptide)
peptide: H[Aib]EGTFTSDVSSYLEGEAVKEFIAWLVKK[Aib]KEFL-NH2
modifications: N-terminus assumed
SMILES: CC[C@H](C)[C@H](NC(=O)[C@H](Cc1ccccc1)NC(=O)[C@H](CCC(=O)O)NC(=O)[C@H](CCCCN)NC(=O)[C@@H](NC(=O)[C@H](C)NC(=O)[C@H](CCC(=O)O)NC(=O)CNC(=O)[C@H](CCC(=O)O)NC(=O)[C@H](CC(C)C)NC(=O)[C@H](Cc1ccc(O)cc1)NC(=O)[C@H](CO)NC(=O)[C@H](CO)NC(=O)[C@@H](NC(=O)[C@H](CC(=O)O)NC(=O)[C@H](CO)NC(=O)[C@@H](NC(=O)[C@H](Cc1ccccc1)NC(=O)[C@@H](NC(=O)CNC(=O)[C@H](CCC(=O)O)NC(=O)C(C)(C)NC(=O)[C@@H](N)Cc1c[nH]cn1)[C@@H](C)O)[C@@H](C)O)C(C)C)C(C)C)C(=O)N[C@@H](C)C(=O)N[C@@H](Cc1c[nH]c2ccccc12)C(=O)N[C@@H](CC(C)C)C(=O)N[C@H](C(=O)N[C@@H](CCCCN)C(=O)N[C@@H](CCCCN)C(=O)NC(C)(C)C(=O)N[C@@H](CCCCN)C(=O)N[C@@H](CCC(=O)O)C(=O)N[C@@H](Cc1ccccc1)C(=O)N[C@@H](CC(C)C)C(N)=O)C(C)C
Take B9: the “CRE luciferase EC50, 0% HSA” value is 0.921 nM and the “CRE luciferase EC50, 1% HSA” value was 0.276 nM.

B10: [Aib8,Glu23,Val25,Glu34,Lys35,Val36,Lys37]-GLP-1-(7-37)-peptidyl-Glu-Glu-Leu amide (peptide)
peptide: H[Aib]EGTFTSDVSSYLEGEAVKEFIAWLVEKVKEEL-NH2
modifications: N-terminus assumed
SMILES: CC[C@H](C)[C@H](NC(=O)[C@H](Cc1ccccc1)NC(=O)[C@H](CCC(=O)O)NC(=O)[C@H](CCCCN)NC(=O)[C@@H](NC(=O)[C@H](C)NC(=O)[C@H](CCC(=O)O)NC(=O)CNC(=O)[C@H](CCC(=O)O)NC(=O)[C@H](CC(C)C)NC(=O)[C@H](Cc1ccc(O)cc1)NC(=O)[C@H](CO)NC(=O)[C@H](CO)NC(=O)[C@@H](NC(=O)[C@H](CC(=O)O)NC(=O)[C@H](CO)NC(=O)[C@@H](NC(=O)[C@H](Cc1ccccc1)NC(=O)[C@@H](NC(=O)CNC(=O)[C@H](CCC(=O)O)NC(=O)C(C)(C)NC(=O)[C@@H](N)Cc1c[nH]cn1)[C@@H](C)O)[C@@H](C)O)C(C)C)C(C)C)C(=O)N[C@@H](C)C(=O)N[C@@H](Cc1c[nH]c2ccccc12)C(=O)N[C@@H](CC(C)C)C(=O)N[C@H](C(=O)N[C@@H](CCC(=O)O)C(=O)N[C@@H](CCCCN)C(=O)N[C@H](C(=O)N[C@@H](CCCCN)C(=O)N[C@@H](CCC(=O)O)C(=O)N[C@@H](CCC(=O)O)C(=O)N[C@@H](CC(C)C)C(N)=O)C(C)C)C(C)C
For B10, the “CRE luciferase EC50, 0% HSA” value stood at 0.025 nM and the “CRE luciferase EC50, 1% HSA” value came out at 0.016 nM.
